Assay results reported in publication PMC13043311, “2′-O-Methyl-guanosine RNA fragments antagonize TLR7 and TLR8 to limit autoimmunity”.
Changes are numbered by the printed parent chain.

Experiments:
[1] = biological target: Macaca mulatta TLR7 (mmTLR7) ectodomain (Macaca mulatta); experiment: cryo-EM structure; TLR7 in complex with mGrUrC^PO; resolution 2.9 Å
[2] = biological target: Macaca mulatta TLR7 (mmTLR7) ectodomain (Macaca mulatta); experiment: cryo-EM structure; TLR7 in complex with mGrArA^PS (mixture of four PS stereoisomers); resolution 2.7 Å
[3] = biological target: Macaca mulatta TLR7 (mmTLR7) ectodomain (Macaca mulatta); experiment: cryo-EM structure; mmTLR7 ectodomain in the presence of GUC-v1^PS (mGmUdC^PS, mixture of RR, RS, SR and SS configurations); overall resolution 3.0 Å
[4] = biological target: T1, TLR7 WT (mmTLR7) (Macaca mulatta, UniProt B3Y653 27-839); experiment: SPR; average stated in text; table runs 38±2, 32±2, 30±1, 20±11, 11±1 (mean 26.2); SPR with recombinant TLR7/TLR8; buffer, pH and temperature not in the material; conditions: protein: recombinant; chain copies: 2; single-stranded
T1 sequence: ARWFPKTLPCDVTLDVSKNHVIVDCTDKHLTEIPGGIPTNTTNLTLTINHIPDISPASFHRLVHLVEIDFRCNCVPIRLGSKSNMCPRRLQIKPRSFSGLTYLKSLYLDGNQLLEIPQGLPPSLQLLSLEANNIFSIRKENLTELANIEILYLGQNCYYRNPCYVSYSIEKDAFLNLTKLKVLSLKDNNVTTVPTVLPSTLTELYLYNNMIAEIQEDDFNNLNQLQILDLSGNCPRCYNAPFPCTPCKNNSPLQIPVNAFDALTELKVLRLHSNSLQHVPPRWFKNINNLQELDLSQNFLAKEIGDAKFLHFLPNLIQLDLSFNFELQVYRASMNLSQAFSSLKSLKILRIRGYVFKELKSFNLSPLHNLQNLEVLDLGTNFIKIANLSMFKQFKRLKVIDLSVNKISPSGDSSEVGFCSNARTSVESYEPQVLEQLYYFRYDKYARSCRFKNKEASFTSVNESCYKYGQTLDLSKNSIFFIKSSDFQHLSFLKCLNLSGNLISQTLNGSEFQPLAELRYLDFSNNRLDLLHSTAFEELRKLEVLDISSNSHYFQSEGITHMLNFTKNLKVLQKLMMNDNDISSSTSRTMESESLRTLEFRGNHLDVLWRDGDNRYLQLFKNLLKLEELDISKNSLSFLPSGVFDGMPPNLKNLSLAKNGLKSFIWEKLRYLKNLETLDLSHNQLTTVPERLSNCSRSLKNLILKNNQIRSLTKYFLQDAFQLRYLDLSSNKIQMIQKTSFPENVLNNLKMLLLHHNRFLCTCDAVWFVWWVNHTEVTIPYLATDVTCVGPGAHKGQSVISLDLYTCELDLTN

[5] = biological target: T2, TLR8 WT (hTLR8) (human, UniProt Q9NR97 27-827); experiment: SPR; average; runs 3±1, 4±1, 5±1, 3±0.4, 4±1, 4±1; SPR with recombinant TLR7/TLR8; buffer, pH and temperature not in the material; conditions: protein: recombinant; chain copies: 2; single-stranded
T2 sequence: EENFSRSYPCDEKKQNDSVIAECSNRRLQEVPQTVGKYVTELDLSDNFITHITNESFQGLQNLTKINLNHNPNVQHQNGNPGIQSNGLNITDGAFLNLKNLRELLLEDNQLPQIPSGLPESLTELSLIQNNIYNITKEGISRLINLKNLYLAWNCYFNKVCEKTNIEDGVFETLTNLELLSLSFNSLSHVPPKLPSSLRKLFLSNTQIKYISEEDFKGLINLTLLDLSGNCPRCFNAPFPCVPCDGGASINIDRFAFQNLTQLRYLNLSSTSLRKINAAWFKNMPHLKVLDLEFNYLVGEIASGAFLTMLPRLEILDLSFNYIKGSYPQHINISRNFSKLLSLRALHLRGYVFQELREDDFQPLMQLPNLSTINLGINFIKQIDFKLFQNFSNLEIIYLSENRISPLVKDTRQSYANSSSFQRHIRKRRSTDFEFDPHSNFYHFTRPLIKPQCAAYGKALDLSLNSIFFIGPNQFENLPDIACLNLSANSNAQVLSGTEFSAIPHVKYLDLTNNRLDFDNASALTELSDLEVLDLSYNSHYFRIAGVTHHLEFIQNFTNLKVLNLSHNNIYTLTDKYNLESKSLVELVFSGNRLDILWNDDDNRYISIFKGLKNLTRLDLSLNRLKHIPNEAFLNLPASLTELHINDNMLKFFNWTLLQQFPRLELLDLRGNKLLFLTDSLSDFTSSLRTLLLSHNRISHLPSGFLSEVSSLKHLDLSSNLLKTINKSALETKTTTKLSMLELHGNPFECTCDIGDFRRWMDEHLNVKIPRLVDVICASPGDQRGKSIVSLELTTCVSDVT

[6] = biological target: T1, TLR7 WT (mmTLR7); experiment: SPR; negligible binding; SPR with recombinant TLR7/TLR8; buffer, pH and temperature not in the material; conditions: protein: recombinant; chain copies: 2; single-stranded
[7] = biological target: T2, TLR8 WT (hTLR8); experiment: SPR; average; runs 5±1, 7±1, 5±1, 12±3, 7±1, 11±2; SPR with recombinant TLR7/TLR8; buffer, pH and temperature not in the material; conditions: protein: recombinant; chain copies: 2; single-stranded
[8] = biological target: T2, TLR8 WT (hTLR8); experiment: SPR; not detected; SPR with recombinant TLR7/TLR8; buffer, pH and temperature not in the material; conditions: protein: recombinant; chain copies: 2; single-stranded
[9] = biological target: T1, TLR7 WT (mmTLR7); experiment: SPR; average; runs 7±2, 7±1, 6±1, 4±2, 4±2; SPR with recombinant TLR7/TLR8; buffer, pH and temperature not in the material; conditions: protein: recombinant; chain copies: 2; single-stranded
[10] = biological target: T2, TLR8 WT (hTLR8); experiment: SPR; control of the nucleoside series; mean computed from runs 1.4±0.9, 1.5±0.09, 1.6±0.1; SPR with recombinant TLR7/TLR8; buffer, pH and temperature not in the material; conditions: protein: recombinant; chain copies: 2; single-stranded
[11] = biological target: T1, TLR7 WT (mmTLR7); experiment: cryo-EM; stereoisomer mixture, modeled as SS; 2.7 A; buffer, pH and temperature not in the material; conditions: protein: recombinant; chain copies: 2; single-stranded
[12] = biological target: T2, TLR8 WT (hTLR8); experiment: SPR; mean computed from runs 1.8±0.2, 1.8±0.2, 1.5±0.2; SPR with recombinant TLR7/TLR8; buffer, pH and temperature not in the material; conditions: protein: recombinant; chain copies: 2; single-stranded
[13] = biological target: T3, TLR8 I403S (human, UniProt Q9NR97 27-827, I403S); experiment: SPR; mean computed from runs 7.6±0.5, 9.7±0.9, 7.5±0.3; SPR with recombinant TLR7/TLR8; buffer, pH and temperature not in the material; conditions: protein: recombinant; chain copies: 2; single-stranded
T3 sequence: T2 sequence with I377S

[14] = biological target: T4, TLR8 F495S (human, UniProt Q9NR97 27-827, F495S); experiment: SPR; no binding observed; SPR with recombinant TLR7/TLR8; buffer, pH and temperature not in the material; conditions: protein: recombinant; chain copies: 2; single-stranded
T4 sequence: T2 sequence with F469S

[15] = biological target: T2, TLR8 WT (hTLR8); experiment: SPR; negligible binding; SPR with recombinant TLR7/TLR8; buffer, pH and temperature not in the material; conditions: protein: recombinant; chain copies: 2; single-stranded

## Macaca mulatta TLR7 (mmTLR7) ectodomain (receptor)
[1]
  stoichiometry N: 2
[2]
  stoichiometry N: 2
[3]
  stoichiometry N: 2

B1: GAG-v1 PS (mGmAdG) (XNA)
strand: GAG
modifications: 2'-OMe G1, 2'-OMe A2, DNA G3; phosphorothioate linkages, stereo-random
[4]
  Kd: 20.2 µM
[5]
  Kd: 4 µM

B2: GCC-v4 PS (mGdCdC) (XNA)
strand: GCC
modifications: 2'-OMe G1, DNA C2, DNA C3; phosphorothioate linkages, stereo-random
[6]
  binding result: no binding
[7]
  Kd: 8 µM

B3: GUC-v1 PS (mGmUdC) (XNA)
RNA: GUC
modifications: 2'-OMe G1, 2'-OMe U2, DNA C3; phosphorothioate linkages, stereo-random
[8]
  binding result: no binding
[9]
  Kd: 5.6 µM

B4: mGrArA PS (XNA)
strand: GAA
modifications: 2'-OMe G1, RNA A2 A3; phosphorothioate linkages, stereo-random
[10]
  Kd: 1.5 µM
[11]
  binding result: binds
[12]
  Kd: 1.7 µM
[13]
  Kd: 8.27 µM
[14]
  binding result: no binding

B5: GUC-v6 PS (dGdTmC) (XNA)
DNA: GTC
modifications: DNA G1, DNA T2, 2'-OMe C3; phosphorothioate linkages, stereo-random
[15]
  binding result: no binding
[6]
  binding result: no binding
